From patent publication US20170320927A1 (Novo Nordisk, published 2017)
Starred links: 1 amine or outer side, 2 acyl side, 3 side chain; linkers in the order of their positions; H or OH if unused. Non-standard residues stand in square brackets, D forms with d. Groups on a side chain read outwards from the residue. No end group written: not given here. *: point of attachment. Amino‑C3‑Gly(Bis) = branched linker 2-[bis(3-aminopropyl)amino]acetyl, two legs on the propylamino groups, O=C(CN(CCCN[*:1])CCCN[*:3])[*:2]; C20 diacid = O=C(O)CCCCCCCCCCCCCCCCCCC(=O)*; C18 diacid = O=C(O)CCCCCCCCCCCCCCCCC(=O)*; γGlu = O=C(O)[C@H](CCC(=O)[*:2])N[*:1]; Trx = NC[C@H]1CC[C@H](C(=O)O)CC1; AEEA = NCCOCCOCC(=O)O; Aib = CC(C)(N)C(=O)O

B1: N{Epsilon-37}-[2-[3-[[2-[2-[2-[[2-[2-[2-[[2-[2-[2-[[2-[2-[2-[[(2S)-2- … (peptide)
peptide: XXEGTFTSDVSSYLEEQAAREFIAWLVRGRK
modifications: not fully specified; Imp (imidazopropionic acid, deamino-histidine) at 7; Aib at 8; Lys37 epsilon-acylated with the branched side chain of the name (GLP-1(7-37) numbering, first residue = 7)
B2: N{Epsilon-35}-[2-[2-[2-[[2-[2-[2-[[2-[2-[2-[[2-[2-[2-[[2-[2-[2-[[2- … (peptide)
peptide: H[Aib]EGTFTSDVSSYLEEQAAREFIAWLVRK([AEEA-AEEA-AEEA-AEEA-AEEA-AEEA-Amino‑C3‑Gly(Bis)-code 2×γGlu-Trx-C20 diacid])RG
notes: X = Aib
B3: N{Epsilon-36}-[2-[2-[2-[[2-[2-[2-[[2-[2-[2-[[2-[2-[2-[[2-[bis[3-[[(45)-4-carboxy-4-(17-carboxyheptadecanoylamino)butanoyl]amino]propyl]amino]acetyl]amino]ethoxy … (peptide)
peptide: H[Aib]EGTFTSDVSSYLEEQAAREFIEWLVRGK([AEEA-AEEA-AEEA-AEEA-Amino‑C3‑Gly(Bis)-code 2×γGlu-C18 diacid])G
B4: N{Alpha}([Aib8,Glu22,Arg26,Arg34,Pro37]-GLP-1-(7-37)-peptidyl)-N{Epsilon}[2-[bis[3-[[2-[2-[2-[[2-[2-[2-[[2-[2-[2-[[2-[2-[2-[[2-[2-[2-[[2-[2-[2-[[(4S)-4-carboxy- … (peptide)
peptide: H[Aib]EGTFTSDVSSYLEEQAAREFIAWLVRGRPK([Amino‑C3‑Gly(Bis)-code 2×AEEA-AEEA-AEEA-AEEA-AEEA-AEEA-γGlu-Trx-C20 diacid])
notes: analogue (8Aib, 22E, 26R, 34R, 37P, 38K) GLP-1(7-37)
B5: N{Epsilon-36}-[2-[bis[3-[[2-[2-[2-[[2-[2-[2-[[2-[2-[2-[[2-[2-[2-[[(45)-4-carboxy-4-(17-carboxyheptadecanoylamino)butanoyl]amino]ethoxy]ethoxy]acetyl]amino]ethox … (peptide)
peptide: H[Aib]EGTFTSDVSSYLEEQAAREFIAWLVRGK([Amino‑C3‑Gly(Bis)-code 2×AEEA-AEEA-AEEA-AEEA-γGlu-C18 diacid])G
B6: N{Epsilon-36}-[2-[2-[2-[[2-[2-[2-[[2-[2-[2-[[2-[2-[2-[[2-[2-[2-[[2- … (peptide)
peptide: H[Aib]EGTFTSDVSSYLEEQAAREFIAWLVRGK([AEEA-AEEA-AEEA-AEEA-AEEA-AEEA-Amino‑C3‑Gly(Bis)-code 2×γGlu-Trx-C20 diacid])G

What follows are binders tested against T1, human GLP-1 receptor (human, UniProt P43220 24-463) (assay: cell-based or functional assay).
With B1 the “EC50 (pM), in vitro potency, CRE luciferase reporter gene assay in BHK cells expressing the human GLP-1 receptor” value (“EC50 (pM), in vitro potency” below) was 12 pM. B2 was tested, and the “EC50 (pM), in vitro potency” value was 9.5 pM. In the case of B3, the “EC50 (pM), in vitro potency” value is reported as 7.1 pM. For B4, the “EC50 (pM), in vitro potency” value was 15 pM.

What follows are binders tested against T1, human GLP-1 receptor (assay: competitive SPA, displacement of [125I]-GLP-1-(7-36)NH2 from BHK membranes with human GLP-1 receptor, high HSA (2.0%)).
Method: (§1) 1. For the receptor binding assay in the presence of low HSA (0.005%) 50 μl of the assay buffer was added to each well of an assay plate. Assay continued with step 3. 2. For the receptor binding assay in the presence of high HSA (2%) 50 μl of the 8% albumin stock was added to each well of an assay plate. Assay continued with step 3. 3. […] 4. Cell membrane aliquots were thawed and diluted to their working concentration. Fifty μl were added to each well in the assay plate. 5. WGA SPA beads were suspended in assay buffer at 20 mg/ml. The suspension was diluted to 10 mg/ml in assay buffer just prior to addition to the assay plate. Fifty μl were added to each well in the assay plate. 6. […] A 25 μl aliquot was reserved for measuring total counts/well. 7. The assay plate was incubated for 2 h at 30° C. 8. The assay plate was centrifuged for 10 min. 9. The assay plate was read in a Packard TopCount NXT instrument.
(§2) The data from the TopCount instrument were transferred to GraphPad Prism software. Individual replicates were analysed using non-linear regression.
In the case of B1, the IC50 is reported as 45 nM. Work on B2 yielded an IC50 of 7.2 nM. Work on B3 yielded an IC50 of 110 nM. B4 showed an IC50 of 30 nM.

Each binder was assayed against T1, human GLP-1 receptor (assay: competitive SPA, displacement of [125I]-GLP-1-(7-36)NH2 from BHK membranes with human GLP-1 receptor, low HSA (max. 0.001%)).
Method: as §1, with “For the receptor binding assay in the presence of low HSA (0.005%) 50 μl of the assay buffer was added to each well of an assay plate.” left out
as §2
B1 showed an IC50 of 0.13 nM. B2 gave an IC50 of 0.33 nM. B5 was tested, and the IC50 was 0.68 nM. B3 was tested, and the IC50 was 1.1 nM. B6 gave an IC50 of 1.2 nM. Work on B4 yielded an IC50 of 0.31 nM.
